In one assay the target is HLA-A*01:01. The assay is described as follows: IEDB peptide-MHC binding, purified MHC/direct/fluorescence; filed as Kd, often an IC50 or EC50 that approximates it; ≥ and ≤ were set here for values at or beyond the usual limits of such assays.
The target of assay [1] is HLA-A*02:01. The assay is described as above.
Another assay addresses HLA-A*03:01. The description is as above.
The next assay has as its target HLA-A*11:01. The assay is described as above.
For another assay, the target named is HLA-A*26:01. The description is as above.
The target in another assay is HLA-A*31:01. The description is as above.
In a further assay the target is HLA-A*69:01. The description is as above.
Another assay has as its target HLA-B*07:02. The assay is described as above.
The target of assay [2] is HLA-B*08:01. Described as above.
Assay [3] addresses HLA-B*15:01. Described as above.
A further assay addresses HLA-B*27:05. The description is as above.
Assay [4] has as its target HLA-B*35:01. Described as above.
Another assay addresses HLA-B*40:01. The description is as above.
The target of another assay is HLA-B*44:02. The description is as above.
Assay [5] addresses HLA-B*58:01. The assay is described as above.
The next assay has as its target HLA-A*24:03. Described as above.
Another assay concerns the target HLA-A*30:01. The description is as above.
For assay [6], the target named is HLA-A*02:01. Description: IEDB peptide-MHC binding, purified MHC/competitive/fluorescence; filed as Kd, often an IC50 or EC50 that approximates it; ≥ and ≤ were set here for values at or beyond the usual limits of such assays. To be noted: source organism: Francisella tularensis subsp. holarctica OSU18.
The target in another assay is HLA-A*02:16. The description is as above. Particulars: source organism: Francisella tularensis subsp. holarctica OSU18.
Assay [7] concerns the target HLA-B*08:01. The assay is described as above.
For a further assay, the target named is HLA-C*07:02. Description: IEDB peptide-MHC binding, purified MHC/direct/fluorescence; filed as Kd, often an IC50 or EC50 that approximates it; ≥ and ≤ were set here for values at or beyond the usual limits of such assays.
The target of the next assay is HLA-C*14:02. The assay is described as above.
In a further assay the target is HLA-C*15:02. Described as above. To be noted: source organism: Salmonella enterica subsp. enterica serovar Paratyphi B str. SPB7.
The target of another assay is HLA-C*03:03. Described as above. Particulars: source organism: Escherichia coli O139:H28 str. E24377A.
The target in the next assay is HLA-C*05:01. Described as above. To be noted: source organism: Escherichia coli O139:H28 str. E24377A.
Assay [8] deals with HLA-B*15:01. The assay is described as follows: IEDB peptide-MHC binding, purified MHC/competitive/fluorescence; filed as Kd, often an IC50 or EC50 that approximates it; ≥ and ≤ were set here for values at or beyond the usual limits of such assays. Particulars: source organism: Escherichia coli O139:H28 str. E24377A.
The target of assay [9] is HLA-B*35:01. The description is as above. Particulars: source organism: Escherichia coli O139:H28 str. E24377A.
Assay [10] deals with HLA-B*58:01. Described as above. Particulars: source organism: Escherichia coli O139:H28 str. E24377A.
[11] abbreviates: source organism: Vibrio cholerae.
[12] abbreviates: source organism: Yersinia pestis.
Where [13] appears, read: source organism: Escherichia coli O139:H28 str. E24377A.
The mark [14] stands for this setting: source organism: Salmonella enterica subsp. enterica serovar Paratyphi B str. SPB7.
Setting [15] is: source organism: Vaccinia virus Copenhagen.
Where [16] appears, read: source organism: Vibrio vulnificus.
[17] abbreviates: source organism: Coxiella burnetii.

pKd: −log10 of the molar value.

A word on the pKd: it is the negative decadic logarithm of the Kd, by convention in mol/L. A lower pKd goes with a high Kd.

As to EIFPNIKIY, the pKd with HLA-A*01:01 (setting [11]) is at most 4.70; with HLA-A*02:01 [1] (setting [11]) it was at most 4.70; in the assay with HLA-A*03:01 (setting [11]), at most 4.70; with HLA-A*11:01 (setting [11]) it was at most 4.70; with HLA-A*26:01 (setting [11]) it was 7.13; with HLA-A*31:01 (setting [11]) it was at most 4.70. Besides, the pKd with HLA-A*69:01 (setting [11]) was at most 4.70; with HLA-B*07:02 (setting [11]) it was at most 4.70; with HLA-B*08:01 [2] (setting [11]), at most 4.70; with HLA-B*15:01 [3] (setting [11]), 6.33; in the assay with HLA-B*27:05 (setting [11]) it was at most 4.70; with HLA-B*35:01 [4] (setting [11]), 6.79. Besides, the pKd with HLA-B*40:01 (setting [11]), in the assay with HLA-B*44:02 (setting [11]) and with HLA-B*58:01 [5] (setting [11]) was at most 4.70 each time.
Take FPRSAERAG: the pKd with HLA-A*01:01 (setting [11]), in the assay with HLA-A*02:01 [1] (setting [11]), with HLA-A*03:01 (setting [11]), in the assay with HLA-A*11:01 (setting [11]), with HLA-A*24:03 (setting [11]) and in the assay with HLA-A*26:01 (setting [11]) was at most 4.70 each time. For the same sequence, the pKd in the assay with HLA-A*30:01 (setting [11]) was at most 5.00; in the assay with HLA-A*31:01 (setting [11]), at most 4.70; in the assay with HLA-A*69:01 (setting [11]), at most 4.70; with HLA-B*07:02 (setting [11]), 6.70; with HLA-B*08:01 [2] (setting [11]) it was at most 4.70; with HLA-B*15:01 [3] (setting [11]), at most 4.70. Besides, the pKd in the assay with HLA-B*27:05 (setting [11]) is at most 4.70; with HLA-B*35:01 [4] (setting [11]), 7.36; in the assay with HLA-B*40:01 (setting [11]), at most 4.70; with HLA-B*44:02 (setting [11]), at most 4.70; with HLA-B*58:01 [5] (setting [11]) it was at most 4.70.
For the sequence FGLLPEHYV, the pKd in the assay with HLA-A*02:01 [6] was 6.92; with HLA-A*02:16, 7.22.
Consider VPRVHNQPQ, for which the pKd in the assay with HLA-A*01:01 (setting [12]), with HLA-A*02:01 [1] (setting [12]), with HLA-A*03:01 (setting [12]), with HLA-A*11:01 (setting [12]), with HLA-A*24:03 (setting [12]) and in the assay with HLA-A*26:01 (setting [12]) was at most 4.70 each time. Also, the pKd was at most 4.70 with HLA-A*30:01 (setting [12]); at most 4.70 in the assay with HLA-A*31:01 (setting [12]); at most 4.70 with HLA-A*69:01 (setting [12]); 7.36 with HLA-B*07:02 (setting [12]); 5.25 in the assay with HLA-B*08:01 [2] (setting [12]); at most 4.70 with HLA-B*15:01 [3] (setting [12]). In addition, the pKd with HLA-B*27:05 (setting [12]), with HLA-B*40:01 (setting [12]), in the assay with HLA-B*44:02 (setting [12]) and with HLA-B*58:01 [5] (setting [12]) was at most 4.70 throughout.
With DLLKPNYAL, the pKd with HLA-B*08:01 [7] (setting [13]) is 5.40.
SVFTGLLPF: the pKd with HLA-C*07:02 (setting [14]) was 6.29; with HLA-C*14:02 (setting [14]) it was 6.25; in the assay with HLA-C*15:02, 4.91.
Turning to RYWYFAAEL, the values for the pKd in the assay with HLA-C*07:02 (setting [15]) and with HLA-C*14:02 (setting [15]) were 5.99 and 7.82, respectively.
For the sequence VNGVKGIQF, the pKd with HLA-A*01:01 (setting [16]), with HLA-A*02:01 [1] (setting [16]), with HLA-A*03:01 (setting [16]), with HLA-A*11:01 (setting [16]), with HLA-A*24:03 (setting [16]) and with HLA-A*26:01 (setting [16]) was at most 4.70 throughout. The pKd in the assay with HLA-A*30:01 (setting [16]), with HLA-A*31:01 (setting [16]), with HLA-A*69:01 (setting [16]), with HLA-B*08:01 [2] (setting [16]), with HLA-B*15:01 [3] (setting [16]) and with HLA-B*27:05 (setting [16]) was at most 4.70 in each case. The pKd with HLA-B*35:01 [4] (setting [16]) is 6.00; with HLA-B*40:01 (setting [16]), at most 4.70; in the assay with HLA-B*44:02 (setting [16]), at most 4.70; in the assay with HLA-B*58:01 [5] (setting [16]), at most 4.70.
Turning to SYGNANVSF, the pKd with HLA-A*01:01 (setting [17]) was 5.74; in the assay with HLA-A*02:01 [1] (setting [17]), at most 4.70; with HLA-A*03:01 (setting [17]) it was at most 4.70; in the assay with HLA-A*11:01 (setting [17]), at most 5.30; with HLA-A*26:01 (setting [17]), at most 4.70; with HLA-A*31:01 (setting [17]), at most 4.70. Also, the pKd with HLA-A*69:01 (setting [17]) was at most 4.70; with HLA-B*07:02 (setting [17]), at most 4.70; with HLA-B*08:01 [2] (setting [17]), at most 4.70; with HLA-B*15:01 [3] (setting [17]), 5.94; with HLA-B*27:05 (setting [17]), at most 4.70; in the assay with HLA-B*35:01 [4] (setting [17]) it was 6.58. Moreover, the pKd with HLA-B*40:01 (setting [17]), in the assay with HLA-B*44:02 (setting [17]) and with HLA-B*58:01 [5] (setting [17]) was at most 4.70 in each case.
In the assay with HLA-B*08:01 [7] (source organism: Influenza A virus (A/Tokyo/1566/98(H3N2))), QLKYKYPAL showed a pKd of 7.17.
Take YALATQVEF: the pKd with HLA-C*03:03 is at least 9.00; with HLA-C*05:01, 5.58; in the assay with HLA-B*08:01 [7] (setting [13]), 5.43; with HLA-B*15:01 [8] it was 7.38; in the assay with HLA-B*35:01 [9] it was at least 10.00; with HLA-B*58:01 [10], 8.35.
